According to patent publication US20090035258A1, “METHODS OF TREATING CANCER BY ADMINISTERING HUMAN IL-18 COMBINATIONS” (priority 2007, published 2009):
Read-outs that look alike come from different tables or passages of the source.

Legend:
[1] = tested on: murine colon carcinoma, Colo 26; test: IL-18 and 5-FU combination in syngeneic murine colon cancer model Colo26; format: in vivo, mouse; settings: 5-FU alone or mIL-18 alone
Protocol: This study aimed to evaluate the efficacy of mIL-18 (SEQ ID NO:2) combination therapy with 5-fluorouracil (5-FU), as compared to monotherapy with 5-FU, or mIL-18 (SEQ ID NO:2) alone. Our study was performed in a well established syngeneic subcutaneous model of murine colon carcinoma, Colo 26, in BALB/c mice. The dosing with mIL-18 (SEQ ID NO:2) was performed daily with 10 μg/mouse s.c. on days 10-30 after tumor inoculation. The dosing with 5-FU was performed i.p. twice a week in the ascending dose: 27, 45 and 74 μg/mouse.
The data comparing tumor volumes in different treatment groups were evaluated at a selected representative time-point, and were expressed as mean+/−SD (FIG. 21), and as median+/−range (FIG. 22). The data were first checked for normal distribution (Gaussian approximation), and standard deviation values were compared to make sure that there is an equal variance. […] Therefore, a non-parametric test (Kruskal-Wallis analysis and Dunn's comparison test) was used for the statistical evaluation. […] FIG. 24 (median+/−SD) and FIG. 25 (mean+/−SD) show the effect of IL-18 and 5-FU combination therapy in same Colo26 syngeneic colon tumor model. […]
Survival of mice bearing Colo26 in different treatment groups was plotted in a Kaplan-Meyer survival curve analysis, and evaluated by Logrank test, and is shown in FIG. 26. […]

EL-4 T-cell lymphoma = test: IL-18 combination with doxorubicin in EL-4 T cell lymphoma, survival; format: in vivo, mouse
Protocol: Studies were performed in female C57/BL/6 mice. As a general protocol, C57/BL mice were injected I.P. with 0.2 cc of stock EL-4 cells. EL-4 murine T-lymphoma cells were expanded in RPMI w/10% FCS. All animals were randomized to six or seven mice per study group with food and water ad libitum. EL-4 cells were harvested on day 0, counted and implanted I.P. with 5×10^5 EL-4 lymphoma cells. Animals were randomized to treatment groups of 6/7 animals on Day 3. Doxorubicin was administered IV on Days 3 &10, pos-implantation. mIL-18 (SEQ ID NO:2) was administered S.C. on Days 3-16. The animals were observed daily for toxicity and mortality.
All animals tolerated dosing schedule and levels well by gross observation. On day 16, all dosing was terminated, and median vehicle death occurred on day 17.5. All vehicle mice expired between days 16-18 post-implantation. Increase in lifespan was calculated by study group/vehicle group−1×100%. For mIL-18 (SEQ ID NO:2) combination therapy with doxorubicin in EL-4 T cell lymphoma, the data were analyzed with respect to median survival time and increase in lifespan.
The prolongation of life span in response to combinational therapy with mIL-18 (SEQ ID NO:2) and doxorubicin was assessed in the syngeneic tumor model of female C57BI/6 mice bearing EL-4 T-cell lymphoma. […] As described below, when vehicle animals expired (on day 16) all dosing was terminated. […]

NK cells [2] = test: NK cytotoxicity assay in EL-4 T-cell lymphoma model; settings: 21 hours post-treatment (FIG. 12)
[3] = cited from earlier work
[4] = tested on: human Ramos B-cell lymphoma line; test: IL-18 combination therapy with RITUXAN in murine human B-cell lymphoma model; format: in vivo, mouse; settings: first experiment (FIG. 3); mIL-18 single agent 100 μg/dose
Protocol: The study was performed in outbred female homozygous SCID mice (ICR-Prkdc^scid) that lack both T and B cells.
Mice were injected with human Ramos B-cell lymphoma line that was originally derived from a patient with Burkitt's lymphoma (ATCC catalogue, CRL 1596). The tumor 1:10 homogenate was inoculated into 6-8 week old mice at the dose 0.5 ml per mouse. […] The therapy was initiated when the median tumor volume per group reached 80-150 mm^3 (at day 12 post tumor inoculation). In addition, those mice that grew a tumor with a volume outside of the set limits were excluded from the study.
The number of animals was increased to n=12, in order to have a better window to measure statistical significance. Tumor volume was measured using the viener calipers two to three times a week.

MOPC-315 plasmacytoma = test: IL-18 monotherapy in advanced MOPC-315 plasmacytoma model; format: in vivo, mouse
Source text: Based upon a broad spectrum of immunostimulatory properties, IL-18 has been studied in a variety of preclinical tumor models. […] Further support for IL-18 mediated cellular immunity also comes from immunohistochemistry performed on established MOPC-315 tumors in control and IL-18 treated mice. […] In addition, it seems that an intact Fas/Fas ligand pathway is beneficial to anti-tumor response.

NK cells [5] = tested on: NK cells

For `O=c1[nH]cc(F)c(=O)[nH]1` [5-FU, 5-fluorouracil, reference compound], the “therapeutic effect of monotherapy compared to control” value [1] was “did not show a therapeutic effect better than a control”.

With `COc1cccc2c1C(=O)c1c(O)c3c(c(O)c1C2=O)C[C@@](O)(C(=O)CO)C[C@@H]3O[C@H]1C[C@H](N)[C@H](O)[C@H](C)O1` [doxorubicin, reference compound] the increase in lifespan (EL-4 T-cell lymphoma; doxorubicin monotherapy 12 mg/kg IV days 3 & 10) was “minimal increase in lifespan” and the NK cytotoxicity (NK cells [2]) was “impaired”.

In the case of “human IL-18: recombinant mature form of human interleukin-18 (SEQ ID NO: 1), expressed in Escherichia coli”, the “toxicity at highest dose tested” value ([3]; 2000 μg/kg administered weekly for up to 24 weeks) is given as “no significant toxicity” and the maximum tolerated dose ([3]; up to 2000 μg/kg weekly for up to 24 weeks) is given as “not identified”.

B1: mIL-18: recombinant murine IL-18 (SEQ ID NO:2), used in the pre-clinical studies (protein)
chain: NFGRLHCTTAVIRNINDQVLFVDKRQPVFEDMTDIDQSASEPQTRLIIYMYKDSEVRGLAVTLSVKDSKMSTLSCKNKIISFEEMDPPENIDDIQSDLIFFQKRVPGHNKMEFESSLYEGHFLACQKEDDAFKLILKKKDENGDKSVMFTLTNLHQS
modifications: Murine
With B1 the increase in lifespan (EL-4 T-cell lymphoma; IL-18 monotherapy 1, 5 and 25 ug/dose S.C. days 3-16) was “did not show any increase in lifespan”, the “therapeutic effect of monotherapy compared to control” value [1] was “did not show a therapeutic effect better than a control” and the anti-tumor activity [4] was “no activity”. For the same molecule, the tumor response (MOPC-315 plasmacytoma; 5 mg/Kg daily for approximately 30 days, advanced tumor) was “reproducible tumor regressions and cure”, the “tumor response in SCID mice” value (MOPC-315 plasmacytoma; SCIDs bearing advanced MOPC-315 tumors, similar schedule) was “failed to regress” and the “rechallenge with parental tumor” value (MOPC-315 plasmacytoma; after cure with IL-18) was “tumor rejection”. For the same molecule, the NK cytotoxicity (NK cells [5]) was “robust NK cytotoxicity”.
